Earlier results, collected in patent publication US20180147231A1, “METHOD FOR TREATMENT AND PROGNOSIS OF COLORECTAL CANCER” (Oxford University Innovation Limited, priority 2015, published 2018).
Positions count from the first letter of the chain named. Names and notes keep the numbering of the source.

Assays:
IL-22R complex = molecular target: T1, IL-22R complex (Homo sapiens, UniProt Q08334+Q8N6P7); conditions: variant of IL-22 (SEQ ID NO: 5) compared with wild type; cited from earlier work
T1 sequence (Q8N6P7 16-228 limits assumed): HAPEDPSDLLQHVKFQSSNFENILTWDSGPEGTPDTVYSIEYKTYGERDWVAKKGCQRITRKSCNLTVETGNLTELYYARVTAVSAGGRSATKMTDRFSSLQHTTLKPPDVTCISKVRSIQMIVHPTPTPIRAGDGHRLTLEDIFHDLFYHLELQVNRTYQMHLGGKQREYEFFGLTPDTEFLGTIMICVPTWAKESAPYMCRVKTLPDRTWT
T1 sequence (Q08334 20-220 limits assumed): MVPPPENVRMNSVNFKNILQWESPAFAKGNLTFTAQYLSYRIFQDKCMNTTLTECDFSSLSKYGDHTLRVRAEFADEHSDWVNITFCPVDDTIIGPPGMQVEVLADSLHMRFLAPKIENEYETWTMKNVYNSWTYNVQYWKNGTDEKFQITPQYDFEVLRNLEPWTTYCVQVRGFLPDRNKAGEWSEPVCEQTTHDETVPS

[1] = molecular target: T2, IL-22RA1 subunit of the receptor (Homo sapiens, UniProt Q8N6P7); conditions: variant of IL-22 (SEQ ID NO: 5) compared with wild type; cited from earlier work
T2 sequence (Q8N6P7 16-574): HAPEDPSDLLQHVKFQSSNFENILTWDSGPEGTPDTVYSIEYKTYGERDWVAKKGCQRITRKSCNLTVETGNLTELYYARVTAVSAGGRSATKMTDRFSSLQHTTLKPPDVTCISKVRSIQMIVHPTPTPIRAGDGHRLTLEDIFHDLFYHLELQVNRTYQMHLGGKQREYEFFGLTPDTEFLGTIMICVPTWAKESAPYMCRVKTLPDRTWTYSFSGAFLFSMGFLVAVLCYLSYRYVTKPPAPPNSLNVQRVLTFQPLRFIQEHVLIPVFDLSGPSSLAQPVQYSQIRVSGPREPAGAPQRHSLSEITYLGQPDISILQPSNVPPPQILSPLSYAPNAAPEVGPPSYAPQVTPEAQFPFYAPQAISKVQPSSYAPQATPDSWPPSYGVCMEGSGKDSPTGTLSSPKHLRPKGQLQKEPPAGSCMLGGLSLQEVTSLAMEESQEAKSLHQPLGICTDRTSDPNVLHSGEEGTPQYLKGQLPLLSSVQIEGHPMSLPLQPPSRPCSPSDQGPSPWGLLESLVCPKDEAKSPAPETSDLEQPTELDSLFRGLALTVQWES

B1: N54G: reduced-function variant of IL-22 (SEQ ID NO: 5) in which N54 is mutated from asparagine to glutamine (protein, listed as Homo sapiens)
chain: MAALQKSVSSFLMGTLATSCLLLLALLVQGGAAAPISSHCRLDKSNFQQPYITGRTFMLAKEASLADNNTDVRLIGEKLFHGVSMSERCYLMKQVLNFTLEEVLFPQSDRFQPYMQEVVPFLARLSNRLSTCHIEGDDLHIQRNVQKLKDTVKKLGESGEIKAIGELDLLFMSLRNACI
- Binding to the IL-22R complex (IL-22R complex): reduce binding

B2: V72A: variant of IL-22 (SEQ ID NO: 5) in which V72 is mutated to A (protein, listed as Homo sapiens)
chain: B1 chain with G54N, V72A
- Binding to the IL-22RA1 subunit of the receptor [1]: reduce binding

B3: F121A: variant of IL-22 (SEQ ID NO: 5) in which F121 is mutated to alanine (protein, listed as Homo sapiens)
chain: B1 chain with G54N, F121A
- Binding to the IL-22R complex (IL-22R complex): reduce binding

B4: D67A: variant of IL-22 (SEQ ID NO: 5) in which D67 is mutated to alanine (protein, listed as Homo sapiens)
chain: B1 chain with G54N, D67A
- Binding to the IL-22RA1 subunit of the receptor [1]: reduce binding

B5: E117A: variant of IL-22 (SEQ ID NO: 5) in which E117 is mutated to alanine (protein, listed as Homo sapiens)
chain: B1 chain with G54N, E117A
- Binding to the IL-22R complex (IL-22R complex): reduce binding

B6: Y51A: variant of IL-22 (SEQ ID NO: 5) in which Y51 is mutated to A (protein, listed as Homo sapiens)
chain: B1 chain with Y51A, G54N
- Binding to the IL-22R complex (IL-22R complex): reduce binding

B7: T56A: variant of IL-22 (SEQ ID NO: 5) in which T56 is mutated to alanine (protein, listed as Homo sapiens)
chain: B1 chain with G54N, T56A
- Binding to the IL-22R complex (IL-22R complex): reduce binding

B8: K162A: variant of IL-22 (SEQ ID NO: 5) in which K162 is mutated to alanine (protein, listed as Homo sapiens)
chain: B1 chain with G54N, K162A
- Binding to the IL-22RA1 subunit of the receptor [1]: reduce binding

B9: N54A: variant of IL-22 (SEQ ID NO: 5) in which N54 is mutated to alanine (protein, listed as Homo sapiens)
chain: B1 chain with G54A
- Binding to the IL-22R complex (IL-22R complex): reduce binding

B10: I161A: variant of IL-22 (SEQ ID NO: 5) in which I161 is mutated to alanine (protein, listed as Homo sapiens)
chain: B1 chain with G54N, I161A
- Binding to the IL-22RA1 subunit of the receptor [1]: reduce binding

B11: R55A: variant of IL-22 (SEQ ID NO: 5) in which R55 is mutated to alanine (protein, listed as Homo sapiens)
chain: B1 chain with G54N, R55A
- Binding to the IL-22R complex (IL-22R complex): reduce binding
